# Patent publication US20250332197A1 (SUNSHINE LAKE PHARMA, published 2025)
# Substitutions are numbered along the chain they refer to.
# T1: claudin-18.2 antigen (manufacturer: GenScript, batch number: R50092011) (UniProt P56856-2 1-261, limits assumed)
# T1 construct: Bought antigen
# T1 sequence (looked up): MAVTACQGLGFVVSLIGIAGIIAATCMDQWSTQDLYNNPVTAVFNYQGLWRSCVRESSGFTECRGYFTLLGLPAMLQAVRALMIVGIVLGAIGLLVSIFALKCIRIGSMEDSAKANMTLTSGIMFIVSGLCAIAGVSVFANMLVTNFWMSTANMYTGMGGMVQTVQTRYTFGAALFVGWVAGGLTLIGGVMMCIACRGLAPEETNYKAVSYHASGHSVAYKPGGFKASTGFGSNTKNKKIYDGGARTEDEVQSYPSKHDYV
# B1: 1B6-huVH1-HC (IgG1) huVL1 (antibody)
# heavy: not shown
# light: DIVMTQSPSSLSVSVGDRVTMTCKSSQSLFNSGNQKNYLTWYQQKPGKAPKLLIYWASTRESGVPDRFSGSGSGTDFTLTISSVQPEDFATYFCQNDYSYPLTFGGGTKLEIKRTVAAPSVFIFPPSDEQLKSGTASVVCLLNNFYPREAKVQWKVDNALQSGNSQESVTEQDSKDSTYSLSSTLTLSKADYEKHKVYACEVTHQGLSSPVTKSFNRGEC
# notes: humanized 1B6, human IgG1, kappa
# B2: 1B6-huVH1huVL1 (antibody, human IgG4 S228P, kappa)
# heavy: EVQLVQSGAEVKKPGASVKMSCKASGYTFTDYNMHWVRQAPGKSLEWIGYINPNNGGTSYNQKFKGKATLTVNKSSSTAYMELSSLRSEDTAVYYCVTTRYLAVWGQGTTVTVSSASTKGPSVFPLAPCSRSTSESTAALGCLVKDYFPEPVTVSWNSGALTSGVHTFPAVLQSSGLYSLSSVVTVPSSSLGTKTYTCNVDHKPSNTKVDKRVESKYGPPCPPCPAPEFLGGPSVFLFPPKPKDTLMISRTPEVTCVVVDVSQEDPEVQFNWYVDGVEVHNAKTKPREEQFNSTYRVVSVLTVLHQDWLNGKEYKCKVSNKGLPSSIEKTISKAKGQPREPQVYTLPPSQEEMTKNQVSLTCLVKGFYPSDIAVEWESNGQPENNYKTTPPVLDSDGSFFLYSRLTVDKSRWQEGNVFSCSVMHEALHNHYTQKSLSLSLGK
# light: B1 light
# notes: humanized 1B6, human IgG4, kappa
# B3: 1B6-huVH3-HC (IgG1) huVL2 (antibody)
# heavy: not shown
# light: B1 light with V3Q, V13A, D66S, V84L, F93Y
# notes: as for B1
# B4: 1B6-huVH5-HC (IgG1) huVL2 (antibody)
# heavy: not shown
# light: B1 light with V3Q, V13A, D66S, V84L, F93Y
# notes: as for B1
# B5: 1B6-huVH4-HC (IgG1) huVL2 (antibody)
# heavy: not shown
# light: B1 light with V3Q, V13A, D66S, V84L, F93Y
# notes: as for B1
# B6: 1B6-huVH3-HC (IgG1) huVL3 (antibody)
# heavy: not shown
# light: B1 light with V3Q, V13A, M21I, K24R, D66S, V84L, F93Y
# notes: as for B1
# B7: 1B6-huVH2-HC (IgG1) huVL2 (antibody)
# heavy: not shown
# light: B1 light with V3Q, V13A, D66S, V84L, F93Y
# notes: as for B1
# B8: 1B6-huVH5-HC (IgG1) huVL3 (antibody)
# heavy: not shown
# light: B1 light with V3Q, V13A, M21I, K24R, D66S, V84L, F93Y
# notes: as for B1
# B9: 1B6-huVH2-HC (IgG1) huVL1 (antibody)
# heavy: not shown
# light: B1 light
# notes: as for B1
# B10: 1B6-huVH1-HC (IgG1) huVL2 (antibody)
# heavy: not shown
# light: B1 light with V3Q, V13A, D66S, V84L, F93Y
# notes: as for B1
# B11: 1B6-huVH4-HC (IgG1) huVL3 (antibody)
# heavy: not shown
# light: B1 light with V3Q, V13A, M21I, K24R, D66S, V84L, F93Y
# notes: as for B1
# B12: 1B6-huVH3-HC (IgG1) huVL1 (antibody)
# heavy: not shown
# light: B1 light
# notes: as for B1
# Target: T1, claudin-18.2 antigen (manufacturer: …)
# Assay: Gator label-free kinetics, antibody loaded, antigen 2000-500 nM
# Method: The GATOR instrument and associated software were opened and the Kinetics experimental mode was selected. After data collection, Kinetics fitting was performed to calculate the affinity kinetic parameters. The correlation coefficient R² of all antibodies in the Global fitting mode was greater than 0.95, which met the system suitability requirements and the results were reliable.
Kd,koff,kon,Binder
63.3 nM,0.00123 s⁻¹,19400 M⁻¹ s⁻¹,B1
98.8 nM,0.00222 s⁻¹,22400 M⁻¹ s⁻¹,B2
10.9 nM,0.00012 s⁻¹,11100 M⁻¹ s⁻¹,B3
59.7 nM,0.00129 s⁻¹,21600 M⁻¹ s⁻¹,B4
20.5 nM,0.000207 s⁻¹,10100 M⁻¹ s⁻¹,B5
9.64 nM,0.000116 s⁻¹,12100 M⁻¹ s⁻¹,B6
11.8 nM,0.00013 s⁻¹,11000 M⁻¹ s⁻¹,B7
76.8 nM,0.00175 s⁻¹,22700 M⁻¹ s⁻¹,B8
9.84 nM,0.000101 s⁻¹,10300 M⁻¹ s⁻¹,B9
86.7 nM,0.00171 s⁻¹,19700 M⁻¹ s⁻¹,B10
43.9 nM,0.000799 s⁻¹,18200 M⁻¹ s⁻¹,B11
7.65 nM,7.83e-05 s⁻¹,10200 M⁻¹ s⁻¹,B12

# Target: T1, claudin-18.2 antigen (manufacturer: …)
# Assay: ELISA, plate coated with claudin-18.2 antigen
# Method: The ELISA plates were washed three times with PBST and blocked with 5% PBS-milk for 2 h at room temperature. The ELISA plate was washed three times with PBST, and the diluted antibodies were added to the ELISA plate, 30 μL per well, and incubated at room temperature for 60 min. The plates were washed three times with PBST and incubated with anti-human IgG-Fc-HRP (abcam, ab97225) for 50 min at room temperature. The plate was washed 12 times with PBST, and TMB was added, 30 μL per well. The reaction was terminated with stop solution and OD450 was read. The ELISA affinity EC50 was calculated.
row,EC50,Binder
1,0.0248 µg/mL,B1
2,0.0839 µg/mL,B2
3,0.0614 µg/mL,B3
4,0.0298 µg/mL,B4
5,0.0431 µg/mL,B5
6,0.0725 µg/mL,B6
7,0.0301 µg/mL,B7
8,0.035 µg/mL,B8
9,0.0403 µg/mL,B9
10,0.0162 µg/mL,B10
11,0.0519 µg/mL,B11
12,0.0592 µg/mL,B12
